Test results as given in patent US20090226415A1, “MODIFIED TRIDEGINS, PRODUCTION AND USE THEREOF AS TRANSGLUTAMINASE INHIBITORS” (priority 2001, published 2009).
Read-outs that look alike come from different tables or passages of the source.

B1: SEQ ID No. 1: recombinant wild-type tridegin polypeptide expressed in and purified from Escherichia coli (protein)
chain: MKLLPCKEWHQGIPNPRCWCGADLECAQDQYCAFIPQCRPRSELIKPMDDIYQRPVEFPNLPLKPREE
B2: C32A: tridegin modified by replacement of a cysteine residue, expressed in Escherichia coli (protein)
chain: MKLLPCKEWHQGIPNPRCWCGADLECAQDQYAAFIPQCRPRSELIKPMDDIYQRPVEFPNLPLKPREE
B3: K02A: modified tridegin, XnY mutation of SEQ ID No. 1, expressed in Escherichia coli (protein)
chain: MALLPCKEWHQGIPNPRCWCGADLECAQDQYCAFIPQCRPRSELIKPMDDIYQRPVEFPNLPLKPREE
B4: C06A: tridegin modified by replacement of a cysteine residue, expressed in Escherichia coli (protein)
chain: MKLLPAKEWHQGIPNPRCWCGADLECAQDQYCAFIPQCRPRSELIKPMDDIYQRPVEFPNLPLKPREE
B5: D50A, P55L: spontaneously arising double mutant of tridegin SEQ ID No. 1, expressed in Escherichia coli (protein)
chain: MKLLPCKEWHQGIPNPRCWCGADLECAQDQYCAFIPQCRPRSELIKPMDAIYQRLVEFPNLPLKPREE
B6: C26A: tridegin modified by replacement of a cysteine residue, expressed in Escherichia coli (protein)
chain: MKLLPCKEWHQGIPNPRCWCGADLEAAQDQYCAFIPQCRPRSELIKPMDDIYQRPVEFPNLPLKPREE
B7: C20A: tridegin modified by replacement of a cysteine residue, expressed in Escherichia coli (protein)
chain: MKLLPCKEWHQGIPNPRCWAGADLECAQDQYCAFIPQCRPRSELIKPMDDIYQRPVEFPNLPLKPREE
B8: P65A: modified tridegin, XnY mutation of SEQ ID No. 1, expressed in Escherichia coli (protein)
chain: MKLLPCKEWHQGIPNPRCWCGADLECAQDQYCAFIPQCRPRSELIKPMDDIYQRPVEFPNLPLKAREE
B9: C18A: tridegin modified by replacement of a cysteine residue, expressed in Escherichia coli (protein)
chain: MKLLPCKEWHQGIPNPRAWCGADLECAQDQYCAFIPQCRPRSELIKPMDDIYQRPVEFPNLPLKPREE
B10: F58A: modified tridegin, XnY mutation of SEQ ID No. 1, expressed in Escherichia coli (protein)
chain: MKLLPCKEWHQGIPNPRCWCGADLECAQDQYCAFIPQCRPRSELIKPMDDIYQRPVEAPNLPLKPREE
B11: C26A; +C38A: tridegin modified by replacement of two cysteine residues, expressed in Escherichia coli (protein)
chain: MKLLPCKEWHQGIPNPRCWCGADLEAAQDQYCAFIPQARPRSELIKPMDDIYQRPVEFPNLPLKPREE
B12: K07A: modified tridegin, XnY mutation of SEQ ID No. 1, expressed in Escherichia coli (protein)
chain: MKLLPCAEWHQGIPNPRCWCGADLECAQDQYCAFIPQCRPRSELIKPMDDIYQRPVEFPNLPLKPREE
B13: N60A: modified tridegin, XnY mutation of SEQ ID No. 1, expressed in Escherichia coli (protein)
chain: MKLLPCKEWHQGIPNPRCWCGADLECAQDQYCAFIPQCRPRSELIKPMDDIYQRPVEFPALPLKPREE

Columns and labels:
[1] = biological target: T1, factor XIIIa (Homo sapiens, UniProt P00488); conditions: Table 1, published inhibitors of factor XIIIa; read-out: Affinity (IC50); cited from earlier work
T1 sequence (P00488 39-732 limits assumed): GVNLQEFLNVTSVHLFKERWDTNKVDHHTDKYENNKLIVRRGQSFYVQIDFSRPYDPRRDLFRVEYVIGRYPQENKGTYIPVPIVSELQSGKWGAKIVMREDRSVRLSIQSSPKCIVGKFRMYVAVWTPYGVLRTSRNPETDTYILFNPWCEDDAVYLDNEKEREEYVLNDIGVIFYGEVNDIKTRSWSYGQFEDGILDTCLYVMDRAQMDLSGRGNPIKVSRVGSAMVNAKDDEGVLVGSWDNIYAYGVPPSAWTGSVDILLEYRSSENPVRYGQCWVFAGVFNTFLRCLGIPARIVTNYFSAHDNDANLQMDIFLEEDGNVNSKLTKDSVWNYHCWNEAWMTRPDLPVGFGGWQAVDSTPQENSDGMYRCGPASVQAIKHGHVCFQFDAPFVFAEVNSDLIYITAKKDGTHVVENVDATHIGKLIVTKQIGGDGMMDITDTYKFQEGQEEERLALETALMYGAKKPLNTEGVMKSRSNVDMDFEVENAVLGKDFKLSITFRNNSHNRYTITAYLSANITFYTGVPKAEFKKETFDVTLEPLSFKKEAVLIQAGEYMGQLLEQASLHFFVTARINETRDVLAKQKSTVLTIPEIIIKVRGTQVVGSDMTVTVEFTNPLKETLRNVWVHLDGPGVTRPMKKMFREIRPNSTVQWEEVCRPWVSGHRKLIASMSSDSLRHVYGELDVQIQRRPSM

[2] = biological target: T1, factor XIIIa; experiment: biochemical; type: biochemical; conditions: for Relative inhibitory effect (%): final variant concentration 5.45 μM
Experimental: The assay is based on factor XIII being activated to form factor XIIIa by thrombin which is present in the reagents. Factor XIIIa links a specific peptide substrate to glycine ethyl ester with ammonium ions being released. The latter are determined in an enzyme reaction which proceeds in parallel. The extinction at 340 nm was used to measure the decrease in NADH. For the measurement, peptides were present in 50% acetonitrile in a stock concentration of 5 mM. The NADH and detection reagents which were supplied by the manufacturer were dissolved in 3 ml of water, with the activator reagent subsequently being dissolved in 3 ml of NADH reagent. For use, the activator and detection reagents were mixed in a ratio of 1:1. In order to carry out the measurement in microtiter plate format, 100 μl of sample (inhibitor or control buffer), 25 μl of factor XIII (10 U/ml) and 150 μl of working reagent were mixed. The measurement was carried out continuously for 20 min at 340 nm, and at 37° C., in a microtiter plate photometer. For the evaluation, the differences in the values measured after 16 and 20 min were compared.
The relative inhibitory effect (%) was determined at a final variant concentration of 5.45 μM. The inhibitory effect of the recombinant tridegin polypeptide was normalized to 100% (at 5.45 μM).
The above-described Berichrom® assay was used to determine the relative inhibitory effect (%) at a final concentration of the peptides of 7.27 μM. The inhibitory effect of the recombinant tridegin polypeptide, at a final concentration of 7.27 μM, was normalized to 100%.
The relative inhibitory effect (%) was determined at a final variant concentration of 5.45 μM. The inhibitory effect of the recombinant wild-type tridegin poly-peptide (at 5.45 μM) was normalized to 100%. The oligonucleotides which were used to produce the abovementioned variants are also specified in the table.

[3] = Analytical gel filtration run for multimeric, high molecular weight aggregates; type: physicochemical; conditions: 20 mM sodium phosphate, pH 8.0, 300 mM NaCl
From the text: These modified tridegins were produced by site-directed mutagenesis of the cysteines present in the wild-type tridegin. The aim of this mutagenesis was to replace, in a step-wise manner, the cysteine residues which are suitable for forming intermolecular disulfide bridges. The tendency to form disulfide bridges, and the aggregation of the end product which accompanies it, were detected by carrying out appropriate chromatographic analyses of the original transglutaminase inhibitor (SEQ ID No. 1) in the presence or absence of reducing agents (e.g. mercaptoethanol and DTT). Thus, in one gel filtration run (on an Amersham-Pharmacia HiPrep 26/60 Sephacryl S200 HR column; 20 mM sodium phosphate, pH 8.0, 300 mM NaCl; 1 ml/min) the purified, recombinant tridegin polypeptide had approximately an 80% content of multimeric, high molecular weight aggregates.

[4] = tested on: whole citrate blood; experiment: Thrombelastography (ROTEG) of coagulation and fibrinolysis in whole citrate blood; parameters: species or system human
From the text: To do this, what are termed thrombelasto-grams were plotted. Thrombelastography is a current method for measuring coagulation and fibrinolysis. The method measures the change in the viscosity of the blood by the change in the resistance to rotation of a plunger which is present in the blood (Calatzis et al., 2000). […] Thrombelastograms quantify important parameters of haemostasis: • clotting time (time between the initiation of coagulation and the beginning of a measurable change in the viscosity of the blood, CT) • stability of the thrombus (maximum amplitude, maximum clot firmness, MCF) • fibrinolysis time (time between the beginning of a measurable change in blood viscosity and achievement of the starting value prior to the clotting, lysis time, LT).
The ROTEG® instrument supplied by Pentapharm GmbH, Munich, was used for the measurements which are shown. FIGS. 5 and 6 show the thrombelastograms of whole citrate blood after the addition of Ca^2+ (Starteg reagent, from Pentapharm GmbH) and thromboplastin phospholipid (Integ reagent, from Pentapharm GmbH). These reagents are used to induce coagulation. […] This is made clear by […]

[5] = Table 2, recombinant tridegin polypeptide normalized to 100%
[6] = Table 4, Cys variants, wild-type tridegin polypeptide normalized to 100%

Molecule | Relative inhibitory effect (%) [2, 5] [%] | Relative inhibitory effect (%) [2, 6] [%] | other results
C[C@@H]1CCC/C=C\C(=O)Cc2cc(O)cc(O)c2C(=O)O1 [ZG-1400] |  |  | IC50 [1]: 5.7 µM
C/C=C/C/C=C/CCC(=O)[C@H]1O[C@H]1C(N)=O [Cerulenin] |  |  | IC50 [1]: 29 µM
B1 | 100 | 100 | IC50 ([2]; purified recombinant tridegin polypeptide from Escherichia coli, FIG. 3): 2 to 4 µM; content of multimeric, high molecular weight aggregates ([3]; Sephacryl S200 HR, no reducing agent): ~80%; content of the aggregates ([3]; reducing conditions: 1.5 mM DTT): < 20%; clotting time (CT) ([4]; FIG. 5 A and B, 190 seconds in the absence of inhibitor): 380 s; effect on fibrinolysis brought about by tPA and urokinase ([4]; lower amplitude and increased rate of fibrinolysis): accelerate and improve the fibrinolysis
B2 |  | 86 | 
B3 | 113 |  | 
B4 |  | 72 | 
B5 | 84 |  | 
B6 |  | 82 | 
B7 |  | 63 | 
B8 | 51 |  | 
B9 |  | 93 | 
B10 | 60 |  | 
B11 |  | 80 | 
B12 | 90 |  | 
B13 | 68 |  | 
